Assay [1] concerns the target T1, CRH (NT Biotin) (human and mouse, not fully specified; biotin at the N-terminus).
T1 peptide: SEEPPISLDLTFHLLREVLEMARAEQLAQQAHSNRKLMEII
The assay can be described thus: ELISA, biotin peptide on streptavidin plate. A digest of the protocol:
(§1)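 First, streptavidin (2 μg/ml in PBS) is coated onto wells overnight at 4° C. Then, following peptide capture and binding, TMB is added for 15 minutes at room temperature. Finally, the reaction is stopped and OD450 nm is measured.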
A general note: ELISA stands for enzyme-linked immunosorbent assay.

In assay [2] the target is T2, CRH (CT Biotin) (human and mouse, C-terminal K-Biotin).
T2 construct: also called Peptide 4 (CRH-Biotin)
T2 peptide: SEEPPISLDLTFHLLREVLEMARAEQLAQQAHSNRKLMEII
Kind of assay: ELISA, biotin peptide on streptavidin plate. Summed up: as §1

The target of the next assay is T3, N-Terminal CRH (human and mouse, C-terminal K-Biotin).
T3 construct: also called N-Ter-CRH (CT-Bion)
T3 peptide: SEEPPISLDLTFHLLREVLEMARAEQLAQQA
Kind of assay: ELISA, biotin peptide on streptavidin plate. A digest of the protocol: as §1

Assay [3] has as its target T4, hUCN1 (NT Biotin) (human, UniProt P55089 83-122, biotin at the N-terminus).
T4 construct: also called human UCN1 (NT biotin)
T4 peptide (looked up): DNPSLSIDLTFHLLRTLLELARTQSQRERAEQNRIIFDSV
The assay can be described thus: ELISA on streptavidin-captured hUCN1 (NT biotin), mAb at 100 nM and 10 nM; axis labelled RLU, scale 0-4. As to the method: (§2) Streptavidin (Thermo, Cat: 21125) was diluted in PBS with a concentration of 2 μg/mL. 100 μL of diluted streptavidin was added per well to ELISA microplates, and the plates were incubated overnight at 4° C. Plates were blocked with ELISA blocking solution (containing 2% w/v BSA, 0.05% (v/v) Tween-20, pH 7.4 PBS buffer) at 37° C. for 1 hour, and then incubated with either 1 μg/mL hUCN1 (NT Biotin), hUCN1 (CT Biotin), hUCN2 (NT Biotin), hUCN2 (CT Biotin), hUCN3 (NT Biotin), or hUCN3 (CT Biotin) for 1 hour at 37° C. […] 100 μl of TMB Substrate (Biopanda, Cat: TMB-S-003) was added, and the plates were incubated at room temperature for 15 minutes. 100 μL of ELISA stopping solution (Solarbio, Cat #: C1058) was then added to terminate the reaction, and the OD450 nm was determined by an ELISA plate reader (Molecular Devices, Spectra max 384 plus).

A further assay addresses T5, biotinylated CRH (human and mouse, not fully specified; biotinylated, position not stated).
T5 construct: also called Biotin-CRH; biotin-labeled CRH
T5 peptide: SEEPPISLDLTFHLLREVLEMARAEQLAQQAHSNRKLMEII
Kind of assay: Octet BLI, biotinylated CRH on SA sensor. (Biolayer interferometry detects binding as a change in optical thickness at a sensor tip.)

Assay [4] concerns the target T6, human UCN2 peptide (human, UniProt Q96RP3 72-109, limits assumed, not fully specified; biotin at N- or C-terminus in the ELISA).
T6 construct: also called hUCN2; hUCN2 (NT Biotin)
T6 peptide (looked up): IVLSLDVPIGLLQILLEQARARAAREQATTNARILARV
Kind of assay: ELISA on streptavidin-captured hUCN2 (NT biotin) and hUCN2 (CT biotin), mAb at 100 nM and 10 nM; axis labelled RLU, scale 0-4. How it is done:
as §2

The next assay deals with T7, hUCN1 (CT Biotin) (human, UniProt P55089 83-122, biotin at the C-terminus).
T7 construct: also called human UCN1 (CT biotin)
T7 peptide (looked up): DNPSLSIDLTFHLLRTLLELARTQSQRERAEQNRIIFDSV
The assay can be described thus: ELISA on streptavidin-captured hUCN1 (CT biotin), mAb at 100 nM and 10 nM; axis labelled RLU, scale 0-4. How it is done:
as §2, with “100 μL of ELISA stopping solution (Solarbio, Cat #: C1058) was then added to terminate the reaction, and the OD450 nm was determined by an ELISA plate reader (Molecular Devices, Spectra max 384 plus).” left out

Assay [5] has as its target T8, corticotropin-releasing hormone (CRH) peptide (human and mouse, not fully specified).
T8 peptide: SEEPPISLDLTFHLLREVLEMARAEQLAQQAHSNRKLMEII
The assay can be described thus: cell-based or functional assay.

The target of assay [6] is T9, human UCN3 peptide (human, UniProt Q969E3 120-157, not fully specified; biotin at N- or C-terminus in the ELISA).
T9 construct: also called hUCN3; hUCN3 (NT Biotin)
T9 peptide (looked up): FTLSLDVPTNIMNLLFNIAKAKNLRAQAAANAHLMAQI
Kind of assay: ELISA on streptavidin-captured hUCN3 (NT biotin) and hUCN3 (CT biotin), mAb at 100 nM and 10 nM; axis labelled RLU, scale 0-4. As to the method:
as §2

Assay [7] has as its target T1, CRH (NT Biotin). The assay can be described thus: ELISA on streptavidin-captured CRH (NT biotin), OD450. As to the method: (§3) Streptavidin (Thermo, Cat: 21125) was diluted in PBS to a concentration of 2 μg/ml. 100 μl of diluted streptavidin was added per well to ELISA microplates, and the plates were incubated overnight at 4° C. […] 100 μL of 3,3′,5,5′-tetramethylbenzidine (TMB) substrate (Biopanda, Cat: TMB-S-003) was added, and the plates were incubated at room temperature for 15 minutes. 100 μL of ELISA stopping solution (Solarbio, Cat #: C1058) was added to terminate the reaction, and the optical density at 450 nm (OD450 nm) was determined by an ELISA plate reader (Molecular Devices, Spectra max 384 plus).

Assay [8] has as its target T6, human UCN2 peptide. Kind of assay: ELISA on streptavidin-captured hUCN2 (NT biotin) and hUCN2 (CT biotin), mAb at 100 nM and 10 nM, OD450. As to the method:
as §2

For assay [9], the target named is T2, CRH (CT Biotin). Kind of assay: ELISA on streptavidin-captured CRH (CT biotin), OD450. How it is done: as §3
Assay [10] deals with T9, human UCN3 peptide. The assay can be described thus: ELISA on streptavidin-captured hUCN3 (NT biotin) and hUCN3 (CT biotin), mAb at 100 nM and 10 nM, OD450. How it is done: as §2
The target of assay [11] is T4, hUCN1 (NT Biotin). Kind of assay: ELISA on streptavidin-captured hUCN1 (NT biotin), OD450. As to the method:
as §3

For assay [12], the target named is T10, CRH (CT-Biotin) (human and mouse, biotin on the added C-terminal K (-K-Biotin)).
T10 construct: also called Peptide 4 (CRH-Biotin); C-terminally biotinylated corticotropin-releasing hormone
T10 peptide: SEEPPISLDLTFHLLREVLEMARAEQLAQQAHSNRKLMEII
Kind of assay: ELISA on streptavidin-captured CRH (CT biotin), OD450. How it is done: as §3

In assay [13] the target is T11, CRH (NT-Biotin) (human and mouse, not fully specified; biotin at the N-terminus).
T11 construct: also called Biotin-CRH; N-terminally biotinylated corticotropin-releasing hormone
T11 peptide: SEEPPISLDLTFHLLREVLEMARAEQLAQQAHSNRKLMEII
The assay can be described thus: ELISA on streptavidin-captured CRH (NT biotin), OD450. How it is done:
as §3

Assay [14] deals with T11, CRH (NT-Biotin). The assay is described as above. How it is done: as §3
Assay [15] deals with T10, CRH (CT-Biotin). The assay can be described thus: ELISA on streptavidin-captured CRH (CT biotin), OD450. How it is done: as §3
Assay [16] deals with T12, corticotropin-releasing hormone (CRH) peptide (human and mouse, not fully specified).
T12 peptide: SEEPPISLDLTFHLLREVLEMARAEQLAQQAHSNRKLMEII
The assay can be described thus: cell-based or functional assay.

For assay [17], the target named is T11, CRH (NT-Biotin). Kind of assay: ELISA, N-terminally biotinylated CRH on streptavidin-coated plate. As to the method:
as §3

In assay [18] the target is T10, CRH (CT-Biotin). The assay can be described thus: ELISA, C-terminally biotinylated CRH on streptavidin-coated plate. As to the method:
as §3

Results on three molecules are retold here after patent US20260042834A1 (HBM ALPHA THERAPEUTICS, published 2026).

Like-named read-outs stand apart in the source and are kept apart here.

B1: PR302334-26 (antibody, human IgG1, kappa, V domains shown)
VH: EVQLVESGGGLVQPGGSLRLSCAASGFTFSTYAMSWVRQAPGKGLEWVASIRSGGTTYYPDSVKGRFTISRDNSKNSLYLQMNSLRAEDTAVYYCTRGIDWGQGTTVTVSS
VL: DIVMTQSPDSLAVSLGERATINCKASQSVNNDVAWYQQKPGQPPRLLIYYASNRYTGVPDRFSGSGSGTDFTLTISSLQAEDLAVYFCQQDYSSWTFGGGTKVEIKR
notes: Humanized variant of PR302334
The term EC50 denotes the concentration needed to bring the measured effect to its halfway point. In general, Kd refers to the concentration at which binding is half-saturated. A low value points to higher affinity. A word on the koff: it is the rate constant with which the complex falls apart. High values mean fast dissociation, low ones slow dissociation. For orientation: kon means a measure of how fast the partners come together. A low value points to slow association. In the case of B1, the results for the EC50 with CRH (NT Biotin) [1], with CRH (CT Biotin) [2] and with N-Terminal CRH were 0.029 nM, 0.028 nM and 0.029 nM, respectively. In addition, the binding result in the assay with hUCN1 (NT Biotin) [3], with human UCN2 peptide [4], with hUCN1 (CT Biotin) and with human UCN3 peptide [6] was “no binding (tested: 100 nM)” throughout. The Kd with biotinylated CRH was less than 1 pM. Further, the koff in the assay with biotinylated CRH is less than 1e-07 s⁻¹. For the same molecule, in the assay with biotinylated CRH, the kon worked out at 329000 M⁻¹ s⁻¹. The “CHO-CRE-hCRHR1 0.5 nM CRH IC50” value in assay [5] turned out to be 1.1 nM.

B2: PR302309-18 (antibody, human IgG1, kappa, V domains shown)
VH: QVQLVQSGAEVKKPGASVKVSCKASGYTFTNYGMNWVRQAPGQRLEWMGWINTYTGEPIYTDDFKGRVTITRDTSASTAYMELSSLRSEDTAVYYCARSTMITTGGVFAYWGQGTLVTVSS
VL: DVVMTQSPLSLPVTLGQPASISCRSSQTIVHSDGNTYLEWYQQRPGQSPRLLIYKVSNRFSGVPDRFSGSGSGTDFTLKISRVEAEDLGVYYCFQGSHVPWTFGGGTKVEIKR
notes: Humanized variant of PR302309
By EC50 (read off the curve) is commonly meant the concentration giving half of the maximal effect. A high value points to weaker potency. In turn, B2 gave an EC50 with N-Terminal CRH of 0.028 nM. The “EC50 (read off the curve)” value is roughly 0.03 nM in the assay with CRH (NT Biotin) [7], roughly 0.03 nM in the assay with CRH (CT Biotin) [9] and roughly 0.1 nM with hUCN1 (NT Biotin) [11]. For the same molecule, the Kd with biotinylated CRH is less than 1 pM. In addition, the koff with biotinylated CRH was less than 1e-07 s⁻¹. The molecule further showed an association rate constant (kon) with biotinylated CRH of 126000 M⁻¹ s⁻¹. The binding result in the assay with human UCN2 peptide [8] and in the assay with human UCN3 peptide [10] was “no binding (tested: 100 nM)” in each case.

B3: PR004290 (antibody, human IgG1, kappa, V domains shown)
VH: EVQLVESGGVLVQPGGSLRLSCAASGFTFSSYWMTWVRQAPGKGLEWVANIKQDGSEKYYVDSVKGRFTISRDNAKNSLFLQMNSLRAEDTAVYYCARTLIFDYWGQGTLVTVSS
VL: DIVMTQSPLSLPVTPGEPASISCRSSQSLLHSTGYNSLEWYLQKPGQSPQLLIYLGSNRASGVPDRFSGSGSGTDFTLKISRVEAEDVGIYYCMQTLQTPITFGQGTRLEIKR
notes: Expressed recombinantly with human IgG1 wildtype Fc; also called Hybridoma Clone 28b3; Series 1 mAb
For the molecule B3, the “EC50 (read off the curve)” value with CRH (CT-Biotin) [12] was roughly 0.01 nM; in the assay with CRH (NT-Biotin) [13], roughly 0.01 nM; with CRH (NT-Biotin) [14] it was roughly 0.05 nM; with CRH (CT-Biotin) [15] it was roughly 0.03 nM. For the same molecule, the “hCRHR1 Reporter IC50” value in assay [16] is 3.69 nM. For the same molecule, the EC50 with CRH (NT-Biotin) [17] stood at 0.029 nM; with CRH (CT-Biotin) [18], 0.032 nM.
